Drawing on the Human Domainome abundance scans (Beltran et al. 2025), this text covers abundance fitness for 39 variants.

To fix the notation:
B1: POU domain, class 3, transcription factor 3, residues 320 to 388; numbered along this chain, P20264 (parent)
chain: DDLEQFAKQFKQRRIKLGFTQADVGLALGTLYGNVFSQTTICRFEALQLSFKNMCKLKPLLNKWLEEAD

± gives the uncertainty stated by the source.

In the data set the parent is B1. As to the kind of experiment: abundance fitness (aPCA) (normalised: wild type 0, dead -1); higher = more abundant; growth selection in yeast, the domain comes from the species named. The conditions noted are these: Homo sapiens.
Take DDLEQFAKQFTQRRIKLGFTQADVGLALGTLYGNVFSQTTICRFEALQLSFKNMCKLKPLLNKWLEEAD: the abundance fitness was -0.39 ± 0.16.
As to DDLEQFAKQFQQRRIKLGFTQADVGLALGTLYGNVFSQTTICRFEALQLSFKNMCKLKPLLNKWLEEAD, the abundance fitness is -0.106 ± 0.14.
As to DDLEQFAKQFMQRRIKLGFTQADVGLALGTLYGNVFSQTTICRFEALQLSFKNMCKLKPLLNKWLEEAD, the abundance fitness was -0.386 ± 0.15.
The result for DDLEQFAKQFPQRRIKLGFTQADVGLALGTLYGNVFSQTTICRFEALQLSFKNMCKLKPLLNKWLEEAD reads -0.888 ± 0.29; that for DDLEQFAKQFVQRRIKLGFTQADVGLALGTLYGNVFSQTTICRFEALQLSFKNMCKLKPLLNKWLEEAD, -0.856 ± 0.25; that for DDLEQFAKQFGQRRIKLGFTQADVGLALGTLYGNVFSQTTICRFEALQLSFKNMCKLKPLLNKWLEEAD, -0.926 ± 0.17.
As to DDLEQFAKQFRQRRIKLGFTQADVGLALGTLYGNVFSQTTICRFEALQLSFKNMCKLKPLLNKWLEEAD, the abundance fitness was -0.087 ± 0.055.
DDLEQFAKQFKQIRIKLGFTQADVGLALGTLYGNVFSQTTICRFEALQLSFKNMCKLKPLLNKWLEEAD: the abundance fitness was -0.771 ± 0.27.
Under DDLEQFAKQFKQERIKLGFTQADVGLALGTLYGNVFSQTTICRFEALQLSFKNMCKLKPLLNKWLEEAD stands -0.311 ± 0.15; under DDLEQFAKQFKQNRIKLGFTQADVGLALGTLYGNVFSQTTICRFEALQLSFKNMCKLKPLLNKWLEEAD, -0.698 ± 0.38.
Under DDLEQFAKQFKQARIKLGFTQADVGLALGTLYGNVFSQTTICRFEALQLSFKNMCKLKPLLNKWLEEAD stands -0.385 ± 0.11; under DDLEQFAKQFKQYRIKLGFTQADVGLALGTLYGNVFSQTTICRFEALQLSFKNMCKLKPLLNKWLEEAD, -0.651 ± 0.17.
The result for DDLEQFAKQFKQPRIKLGFTQADVGLALGTLYGNVFSQTTICRFEALQLSFKNMCKLKPLLNKWLEEAD reads -0.865 ± 0.21.
Regarding DDLEQFAKQFKQWRIKLGFTQADVGLALGTLYGNVFSQTTICRFEALQLSFKNMCKLKPLLNKWLEEAD, the abundance fitness is -0.697 ± 0.16.
The result for DDLEQFAKQFKQVRIKLGFTQADVGLALGTLYGNVFSQTTICRFEALQLSFKNMCKLKPLLNKWLEEAD reads -0.311 ± 0.099; that for DDLEQFAKQFKQKRIKLGFTQADVGLALGTLYGNVFSQTTICRFEALQLSFKNMCKLKPLLNKWLEEAD, -0.062 ± 0.086.
Turning to DDLEQFAKQFKQQRIKLGFTQADVGLALGTLYGNVFSQTTICRFEALQLSFKNMCKLKPLLNKWLEEAD, the abundance fitness is -0.32 ± 0.098.
The result for DDLEQFAKQFKQLRIKLGFTQADVGLALGTLYGNVFSQTTICRFEALQLSFKNMCKLKPLLNKWLEEAD reads -0.824 ± 0.16; that for DDLEQFAKQFKQGRIKLGFTQADVGLALGTLYGNVFSQTTICRFEALQLSFKNMCKLKPLLNKWLEEAD, -0.745 ± 0.18.
As to DDLEQFAKQFKQMRIKLGFTQADVGLALGTLYGNVFSQTTICRFEALQLSFKNMCKLKPLLNKWLEEAD, the abundance fitness was -0.578 ± 0.15.
Under DDLEQFAKQFKQSRIKLGFTQADVGLALGTLYGNVFSQTTICRFEALQLSFKNMCKLKPLLNKWLEEAD stands -0.582 ± 0.15; under DDLEQFAKQFKQHRIKLGFTQADVGLALGTLYGNVFSQTTICRFEALQLSFKNMCKLKPLLNKWLEEAD, -0.263 ± 0.16.
Under DDLEQFAKQFKQTRIKLGFTQADVGLALGTLYGNVFSQTTICRFEALQLSFKNMCKLKPLLNKWLEEAD stands -0.561 ± 0.18.
With DDLEQFAKEFKQRRIKLGFTQADVGLALGTLYGNVFSQTTICRFEALQLSFKNMCKLKPLLNKWLEEAD, the abundance fitness is 0.042 ± 0.12.
Under DDLEQFAKCFKQRRIKLGFTQADVGLALGTLYGNVFSQTTICRFEALQLSFKNMCKLKPLLNKWLEEAD stands -0.457 ± 0.12; under DDLEQFAKAFKQRRIKLGFTQADVGLALGTLYGNVFSQTTICRFEALQLSFKNMCKLKPLLNKWLEEAD, -0.241 ± 0.1.
The result for DDLEQFAKSFKQRRIKLGFTQADVGLALGTLYGNVFSQTTICRFEALQLSFKNMCKLKPLLNKWLEEAD reads -0.107 ± 0.082; that for DDLEQFAKIFKQRRIKLGFTQADVGLALGTLYGNVFSQTTICRFEALQLSFKNMCKLKPLLNKWLEEAD, -0.425 ± 0.26; that for DDLEQFAKRFKQRRIKLGFTQADVGLALGTLYGNVFSQTTICRFEALQLSFKNMCKLKPLLNKWLEEAD, -0.222 ± 0.066.
The result for DDLEQFAKTFKQRRIKLGFTQADVGLALGTLYGNVFSQTTICRFEALQLSFKNMCKLKPLLNKWLEEAD reads 0.029 ± 0.097.
DDLEQFAKGFKQRRIKLGFTQADVGLALGTLYGNVFSQTTICRFEALQLSFKNMCKLKPLLNKWLEEAD: the abundance fitness is -0.205 ± 0.083.
The result for DDLEQFAKVFKQRRIKLGFTQADVGLALGTLYGNVFSQTTICRFEALQLSFKNMCKLKPLLNKWLEEAD reads -0.231 ± 0.081; that for DDLEQFAKKFKQRRIKLGFTQADVGLALGTLYGNVFSQTTICRFEALQLSFKNMCKLKPLLNKWLEEAD, -0.046 ± 0.071.
Regarding DDLEQFAKNFKQRRIKLGFTQADVGLALGTLYGNVFSQTTICRFEALQLSFKNMCKLKPLLNKWLEEAD, the abundance fitness was 0.038 ± 0.12.
Regarding DDLEQFAKWFKQRRIKLGFTQADVGLALGTLYGNVFSQTTICRFEALQLSFKNMCKLKPLLNKWLEEAD, the abundance fitness is -0.2 ± 0.1.
The result for DDLEQFAKMFKQRRIKLGFTQADVGLALGTLYGNVFSQTTICRFEALQLSFKNMCKLKPLLNKWLEEAD reads 0.128 ± 0.12.
The result for DDLEQFAKLFKQRRIKLGFTQADVGLALGTLYGNVFSQTTICRFEALQLSFKNMCKLKPLLNKWLEEAD reads -0.223 ± 0.043; that for DDLEQFAKYFKQRRIKLGFTQADVGLALGTLYGNVFSQTTICRFEALQLSFKNMCKLKPLLNKWLEEAD, 0.052 ± 0.12; that for DDLEQFAWQFKQRRIKLGFTQADVGLALGTLYGNVFSQTTICRFEALQLSFKNMCKLKPLLNKWLEEAD, -0.42 ± 0.19.
